Measured values from a protein production outcome set (Wang et al. 2014).

Assay: label from the status in PepcDB records

MVNLMILSGIVLLTCIISSKIFYKWGVPVLLVFIIIGMLFGSDGIGGIYFDNYNITYSLSSIALVFIMFYGGFCTEWKKARSVAIPSIMLSTLGVIITAGLTGLFCHFVLKTSIFEGLLLGCIVASTDAASVISILRSRNLKLKNNIDTLVEFESGSNDPTAYMLTSVMLIFITSNESVGIGLLGMIFKQIVFGVTVGLFLSKLAVFILRKVEFEIEGLYPIFTITVAILAYSISEFLGGNGYLSVFIAGIVMGNSKIPHKKSLNHFFDGLSWIMQIILFFMLGLLAFPSQLPSIAFEGIAISIFLILVGRPIAVFTILSWFKVPIKEQMFISWVGLRGAGSLVFAIYAITKTSAIENDIFHIIFFIALFSVAIQGTLIPWFAKKLDLICYEDDNHEDNMKNNIKDYIFEVKVGENNKVVNKAIMDSEIPDEILIVMIKRDNKVVIPKGFTIIKPNDTLVLTSENNEIMNSFLDEIR
protein production: failed

MVNQNLTATEIGFTHEDFAALLDKYDYHFSPGDVVPGTVFSIEPRGALIDIGAKTAAYIPIQEMSINRVDAPEEVLQSNETREFFILTDENEDGQLTLSIRRIEYMRAWERVRQLQAEDATVRSGVFATNRGGALVRIEGLRGFIPGSHISTRKPKEELVGEELPLKFLEVDEERNRLVLSHRRALVERKMNRLEVGEVVIGTVRGIKPYGAFIDIGGVSGLLHISEISHEHIDTPHSVFNVNDEVKVMIIDLDAERGRISLSTKQLEPEPGDMIKNRDLVYDKAEEMAAKYREQLLAKQQGITLPAEGAEDLIEEEIPPATEDAVAEEEIVAVEEIPAAIEE
protein production: failed

MVPDWEEVLGLWRAGRYYEVHEVLEPYWLKATGEERRLLQGVILLAAALHQRRLGRPGLRNLRKAEARLEGLPCPLMGLDWRSLLQEARRRLGA
protein production: not failed

MVPHHWASLWNRQLALQTSVRRRLRKEIDLIRFLKATAAADELTGIVGIAAQVIEALGEWGVGLLTLLETVFPPIPSEVILPLAGFLTQQGSMNLILVFVTSTLGAYAGAMLLYWLGYKVGLERSIKLLSKLPLVDREDFEKAAEWFERHGKSAIFFGRLLPGVRSLISLPAGAERMNLATFSVFTVAGTGLWNALLIGAGALLGKQYHLVDQYSRFLNYAVYAGLAALLVWLIIRRVKKRKESTR
protein production: failed

MVPHIDGLFLRDVEAVLTAPDRADLPVLNPGLGTWVDKTTVTWFKFNHQLAVTIGDILQRNFHHAWPTYRMIPVVFKASTLCMHTWDSRHTLTVWTQFNLVARTLYRDNMRAMKRRWARGLDKSRWMTTTVWNDLVDMFTEFGPDDVGFMS
protein production: failed

MVPRVPQPGIWCPAVTFFDSKTDTLDLASQERYYAYLARSGLTGLVILGTNAEAFLLTREERAQLIATARKAVGPDFPIMAGVGAHSTRQVLEHINDASVAGANYVLVLPPAYFGKATTPPVIKSFFDDVSCQSPLPVVIYNFPGVCNGIDLDSDMITTIARKNPNVVGVKLTCASVGKITRLAATLPPAAFSVFGGQSDFLIGGLSVGSAGCIAAFANVFPKTVSKIYELYKAGKVDQAMELHRKAALAESPCKSGIATTKYAAAIFSAKAAGIEDAEEKLRPRKPYDPPSEAAKQEVRKVMAEVAAIEAGLS
protein production: not failed

MVQAHGGRSRAQPLTLSLGAAMTQPPPEKTPAKKHVRLQERRGSNVALMLDVRSLGAVEPICSVNTPREVTLHFLRTAGHPLTRWALQRQPPSPKQLEEEFLKIPSNFVSPEDLDIPGHASKDRYKTILPNPQSRVCLGRAQSQEDGDYINANYIRGYDGKEKVYIATQGPMPNTVSDFWEMVWQEEVSLIVMLTQLREGKEKCVHYWPTEEETYGPFQIRIQDMKECPEYTVRQLTIQYQEERRSVKHILFSAWPDHQTPESAGPLLRLVAEVEESPETAAHPGPIVVHCSAGIGRTGCFIATRIGCQQLKARGEVDILGIVCQLRLDRGGMIQTAEQYQFLHHTLALYAGQLPEEPSP
protein production: failed

MVQAQTRDQIVAAADELFYRQGFAQTSFVDISAAVGISRGNFYYHFKTKDEILAEVIRLRLARTAQMLADWQGTGDSPRARIASFIDLMIMNRAKITRYGCPVGSLCTELSKLDHAAQGQANGLFTLFRDWLQRQFAEAGCTTEAPALAMHLLARSQGAATLAQSFHDEGFLRSEVADMHRWLDNTLPMTT
protein production: not failed

MVQEPTQDHLIGTTVDGRYTVRSRLASGGMSTVYLATDQRLERDVALKVLHPHLANDPTFLERLSREAKAAASLSHPHIVGVLDQGEDGTIAYLVMEYVKGHTLRDTLNEQGALQPRLALALIDPVIEGLAAAHRSGLIHRDVKPENVLIADDGRIKVGDFGLARAISANTSTGALIGTVAYLAPELVLGQPADARSDIYSAGIMLYEMLTGKQPYAGDSPIQVAYQHVNAAVGRPSDAAPGLAEDLDELVQWCTAVDAENRPVDGTALLTELRHIRTTLTDEDLDRRQAPSQPPGSPAAATAAAALGGPGGNPTEAIPATASPTEMISHQSNPTTIMAAAGSGRPQTAAVGAVNHEVVRQPGKRELKRLERQEIKDRARAAATPSRPLREGNPRRRGIIWTIVIVILATLAASAGWFFGMGPGSPGTVPDVKNKTVAEAQQLLRTAGFQSEPKDVFDDDILAGLAVGTEPESGAEVRKFQPITLFVSKGAQLFALPTLTGGSLDEAKTALNAAEMALGNVTQAFDEKVPAGVVISQDPAKGTEVRHGTPVSLVVSKGPQPIPVPDVRGLAQDAAVKALQDAGLTAVIAPETVNDKTVPKGAVVSQVPANGTLVRGEAVTLTVSKGPKLVKVPSFIGKQADEAEKELKKLGFKVQVNKVLGGFFGTVRDQNPVNTEIPEDSVVTLTVV
protein production: failed

MVQHLTAEEIIQYISDAKKSTPIKVYLNGNFEGITYPESFKVFGSEQSKVIFCEADDWKPFYEAYGSQFEDIEIEMDRRNSAIPLKDLTNTNARIEPGAFIREQAIIEDGAVVMMGATINIGAVVGEGTMIDMNATLGGRATTGKNVHVGAGAVLAGVIEPPSASPVIIEDDVLIGANAVILEGVRVGKGAIVAAGAIVTQDVPAGAVVAGTPAKVIKQASEVQDTKKEIVAALRKLND
protein production: not failed

MVQLIKKYEDLLCLLDELIKNESTFRWDEFYLERERDVPFFVLAPDEQLVEYVCTGLIESGKVLELGCGPGRNAIYLAENHFEVDVVDLSQKAIDWAMDRANERKASIRFIRENIFNLNVNKASYDLVYDSGCFHHIPPHRRMDYIHLVTTALKPGGHFGLTCFIENGPLGGAAISDLDVYRQQSLQGGLGFTEQKLIQIFDDFAVIEIRKMKEYPNDSSRFGVNGLLTALFQKKKVEKVKLEHHHHHH
protein production: failed

MVQLSLSQVHQDQIYRHGERCYPEECCGLLLGKILIGENGHRHWQVVEVQPTENCWGDVEEFQQNNHQGNKLHYFAIDPKVLLSAQKDCRQKGLSIIGIFHSHPHGQPIPSEFDRAIAWPEYIYLIASGLEHHHHHH
protein production: failed

MVQTIIDPVILPFNGDDTKSSLLTGGDPPSAAELAAKTVEDQLPREANPTAPAVAPLSLSLEDLKAILATVTKDLSQRLTAGSTS
protein production: failed

MVRGDAVIVQAALQDGHWSGRADVLRRVEIPSGLGAWSSVVEDKKQALDLVDRVLSKNPASASAHRTKGAILLFGHPEEAMAEYDAALEIDPNNPAVYAAKTITLIVTGRAREAFSPLQLAHCYVCFGHCARVAEARCSIRTQGAGLRRVALLARSRT
protein production: failed

MVRGIRGAITVEEDTPEAIHQATRELLLKMLEANGIQSYEELAAVIFTVTEDLTFAFPAEAARQIGMHRVPLLSAREVPVPGSLPRVIRVLALWNTDTPQDRVRHVYLREAVRLRPDLESAQ
protein production: not failed

MVRHRGNKEERQQALRRYLRSNPFATDEELAEKFEVSVPTIRLDRLALGIPEVRERIMAMAQEARSRMRGVTAEELVGELVELQPGVMGISILEITPPMLVQPAGVARGYYLFAQAHSLALATVGAEVVLTSSARVRYRRPVYAGERVVARAMVKVVKDSTCLVSVHSRVNGEIVFKGRYIIITPDAATGGGSA
protein production: failed

MVRKQKRARLIYNPTSGQEIMKKNVAEVLDILESFGYETSAFQTTPRADSAKNEAARASQAGFDLVIAAGGDGTINEVVSGIAPLKRRPKVAIIPTGTTNDFARALKIPRGNPVEATKLIGKNQTIHMDIGRAYNDKYFINIAAAGSLTELTYSVPSQLKTMFGYLAYLVKGAELLPRVRNVPVKVFYDHGVFEGEASMIFVALTNSVGGFETIAPDAKLDDGKFTLILVKTANLFELTDLIRLVLTGGRHINHKKIEYIKTSYLKIIPQGNPPKRMMINLDGEYGGDAPIELRNLKNHIEFFANTDEISDDAITLDTEELVLEAIAQKFAREAESLDEMDKTKEQD
protein production: not failed

MVRRCETQRGRWDNKVNILKDTDKFGFDLGFQLQESKKRFGPDLGFCIKRFAPPILQMSLEENENGPKPTWQIRSNRETSKAIRSAPPLTFSSFTGVSLGRKLPNNKNPESSKTRQEGFDTVEEGLKGDRGRTSVDRSEYDGG
protein production: failed

MVRSCAPHKRKAGRRARLAFGALASHGARENTEVPMRYVLILLLALFGYLLFWPIPVAPVAYHPPETPGFTGDFAENRVLDRAEFVTLPDGEIGPEDLAVMPDGTVYTTSLAGNLYRIDGAVPQLVDRLGGRPLGLKAGPDGALYIADSFRGILRWTAPGEVETVVDQIDGAPVIYANQLDLGRDGTIYFSNSTDRFDPRTLGGTKPTSVMTVWEQSDTGYVARRTPDGRVEKIATGFVYTNGVALSPDEDFLLINETGRARVHRLWLTGDKAGQSEVFLDNLPGYPDNIEAQGDGTYWLAFASPRVPAEALMPYPFLRKVVWRLGPKVRPAPIHRGMLIQFDGTGRILRTVQDPDGRLGITTGGKQVGARFYVMTLDSPGFARMDSADLR
protein production: failed

MVRTRLFGTFPHLSRSAQAQRNMTTTYANADPGELEKFSELAHRWWDPNSEFKPLHEINPLRLDWIQSTAPLAGKRVVDVGCGGGILSESMARAGANVKGIDLSRKALRVADLHSLEAGVAVDYEEIAAEALAAREPGSFDVVTCMEMLEHVPDPASVVRACATLVKPGGHVFFSTIHRNAKAYLLAVIGAEYVLNMLPRGTHDYAKFIRPSELAGFARTAGLEPAQLRGLEYNPLTGRYALTHDTSVNYLIATRRPDAP
protein production: failed

MVRVDQNLFNEVMYLLDELSQDITVPKNVRKVAQDSKAKLSQENESLDLRCATVLSMLDEMANDPNVPAHGRTDLYTIISKLEALS
protein production: not failed

MVSDAALHGKLAVEHASDHLVVLAQADSGPITVDQFKEKLKEVQQEEQLGWLTAIGKYFIGIFQKGGEVFAGFVTGIIPTLVVLMTAFYAVTELVGEERVHGLARGAGRIALTRYTLLPLLAVFFLTNPMAYTFGSFLEEKHKPAFYDAAVSYVHPPLGLFPHINPGEYFVWGGILVALLELEKKGVVVAGYHVKVAIWYAIVGLVVILLKGMLTERITTIMARRQGVEL
protein production: failed

MVSEMLSEAGHSVSYLKGGMKAWSEHLEPVKVGDLKDGGEMYQFVRIGKGCLSYMVISNGEAAIIDATRMVNFFIDFAKGKGATITHVFDTHLHADHISGGRVIAEKTKATYWLPPKDAEEVEFDYQPLEEGNDIIIGNTTIKIQPIYSPGHTIGSTSFIVDDQYLLSGDILFIDSIGRPDLAGMAEDWVGDLRKTLYSRYKALSKDLIVLPAHFMIIDELNENGSVGKQLSTLFSENHGLNIADETEFRHLVTDHLPPQPNAYQEIRETNMGKISPDEEKQREMEIGPNRCAIRLEHHHHHH
protein production: failed

MVSFDHATLGYITFVLMNFSMLSGAFIFLSKKKQHWIKVHLLVSILTYIFMVWTIWVVR
protein production: failed
